Measured values: patent US20030012785A1 (WATSON PHARMACEUTICALS, published 2003)

Biological target: T1, IL-2 receptor (mouse, on CTLL-2 cells and murine splenocytes) (mouse, UniProt P01590 22-268; P16297 27-539; P34902 23-369)
T1 sequence (looked up) 1: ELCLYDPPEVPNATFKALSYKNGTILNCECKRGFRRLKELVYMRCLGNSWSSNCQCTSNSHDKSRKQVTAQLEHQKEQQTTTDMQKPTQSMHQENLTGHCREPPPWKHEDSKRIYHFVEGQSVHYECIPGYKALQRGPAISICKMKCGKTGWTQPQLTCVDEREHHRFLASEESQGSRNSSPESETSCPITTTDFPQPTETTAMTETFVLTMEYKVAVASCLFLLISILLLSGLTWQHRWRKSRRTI
T1 sequence (looked up) 2: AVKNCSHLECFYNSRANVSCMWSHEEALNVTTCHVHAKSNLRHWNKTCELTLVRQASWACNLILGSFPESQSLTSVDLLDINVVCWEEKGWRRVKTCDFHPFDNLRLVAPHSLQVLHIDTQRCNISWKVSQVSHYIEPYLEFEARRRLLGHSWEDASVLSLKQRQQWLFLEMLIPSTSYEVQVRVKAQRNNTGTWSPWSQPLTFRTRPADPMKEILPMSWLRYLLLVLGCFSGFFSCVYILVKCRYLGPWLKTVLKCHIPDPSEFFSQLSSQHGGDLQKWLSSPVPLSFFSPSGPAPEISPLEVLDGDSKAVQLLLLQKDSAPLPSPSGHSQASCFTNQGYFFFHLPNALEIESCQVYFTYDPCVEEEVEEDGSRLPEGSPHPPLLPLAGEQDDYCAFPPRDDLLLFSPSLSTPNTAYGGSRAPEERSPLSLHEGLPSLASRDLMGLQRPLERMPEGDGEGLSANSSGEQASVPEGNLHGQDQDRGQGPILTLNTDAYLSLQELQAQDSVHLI
T1 sequence (looked up) 3: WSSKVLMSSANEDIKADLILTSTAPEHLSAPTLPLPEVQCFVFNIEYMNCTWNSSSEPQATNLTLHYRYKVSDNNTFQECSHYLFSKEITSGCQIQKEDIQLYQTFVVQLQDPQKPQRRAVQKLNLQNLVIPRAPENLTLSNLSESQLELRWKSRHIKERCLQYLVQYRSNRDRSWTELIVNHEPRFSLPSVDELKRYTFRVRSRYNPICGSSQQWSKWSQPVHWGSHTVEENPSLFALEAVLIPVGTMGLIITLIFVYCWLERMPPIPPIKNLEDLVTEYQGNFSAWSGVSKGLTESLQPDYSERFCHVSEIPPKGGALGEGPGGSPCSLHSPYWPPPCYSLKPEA
Assay: cell-based or functional assay

B1: unconjugated peptide TT23 (peptide)
peptide: TGLNRILLGFLG
In the case of B1, the “Percent inhibition of IL-2 induced proliferation of murine splenocytes (recombinant human IL-2, trypan blue viable cell counts, 48 hours); amount needed relative to PEG-TT23” value is reported as about 100 fold.
